Laboratory results: the supplement of paper PMC10724198

Columns and labels:
[1] = system: Saccharomyces cerevisiae; assay: protein stability index of tFT-peptide fusion in wild type (PSI (0-1 scale)); higher = more stable (slower turnover); settings: genetic background: wild type
[2] = system: Saccharomyces cerevisiae; assay: protein stability index of tFT-peptide fusion in deletion strain of DAS1 (PSI (0-1 scale)); higher = more stable (slower turnover)
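Wherever protein stability index of tFT-peptide fusion in deletion strain of DAS1 is given: PSI is a weighted mean of each variant's read distribution over the sorted stability bins, computed only for variants having over 10 reads in total.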
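Wherever protein stability index of tFT-peptide fusion in wild type is given: PSI derived as read-weighted mean over the 8 sorting bins, only variants exceeding 10 total reads kept, mCherry placed adjacent to the peptide and sfGFP distal.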

Sequence: LVVYLSCVACIC
- protein stability index [1]: 0.0144
- protein stability index [2]: 0.0309

Sequence: LVVYLSCVACID
- protein stability index [1]: 0.0162
- protein stability index [2]: 0.0175

Sequence: LVVYLSCVACINI
- protein stability index [1]: 0.0206
- protein stability index [2]: 0.0321

Sequence: LVVYLSCVACINK
- protein stability index [1]: 0.0222
- protein stability index [2]: 0.0356

Sequence: LVVYLSCVACINT
- protein stability index [1]: 0.0205
- protein stability index [2]: 0.0331

Sequence: LVVYLSCVACINY
- protein stability index [1]: 0.0212
- protein stability index [2]: 0.0337

Sequence: LVVYLSCVACIQ
- protein stability index [1]: 0.0107
- protein stability index [2]: 0.0327

Sequence: LVVYLSCVACIS
- protein stability index [1]: 0.014
- protein stability index [2]: 0.0369

Sequence: LVVYLSCVACIV
- protein stability index [1]: 0.0146
- protein stability index [2]: 0.0299

Sequence: LVVYLSCVAKIN
- protein stability index [1]: 0.0143
- protein stability index [2]: 0.0401

Sequence: LVVYLSCVALIN
- protein stability index [1]: 0.0158
- protein stability index [2]: 0.0501

Sequence: LVVYLSCVHCIN
- protein stability index [1]: 0.0533
- protein stability index [2]: 0.251

Sequence: LVVYLSCVSCIN
- protein stability index [1]: 0.0143
- protein stability index [2]: 0.0441

Sequence: LVVYNSCVACIN
- protein stability index [1]: 0.245
- protein stability index [2]: 0.406

Sequence: LVVYQSCVACIN
- protein stability index [1]: 0.216
- protein stability index [2]: 0.339

Sequence: LVVYTSCVACIN
- protein stability index [1]: 0.0172
- protein stability index [2]: 0.0606

Sequence: PDKMNHLIKLLN
- protein stability index [1]: 0.111
- protein stability index [2]: 0.614

Sequence: PDKRNHLIKCLN
- protein stability index [1]: 0.169
- protein stability index [2]: 0.634

Sequence: PDKRNHLIKLEN
- protein stability index [1]: 0.611
- protein stability index [2]: 0.603

Sequence: PDKRNHLIKLLG
- protein stability index [1]: 0.238
- protein stability index [2]: 0.614

Sequence: PDKRNHLIKLLK
- protein stability index [1]: 0.758
- protein stability index [2]: 0.611

Sequence: PDKRNHLIKLLND
- protein stability index [1]: 0.638
- protein stability index [2]: 0.664

Sequence: PDKRNHLIKLLNP
- protein stability index [1]: 0.663
- protein stability index [2]: 0.672

Sequence: PDKRNHLIKVLN
- protein stability index [1]: 0.186
- protein stability index [2]: 0.577

Sequence: PDKRNHLIRLLN
- protein stability index [1]: 0.144
- protein stability index [2]: 0.614

Sequence: PDKRNHLLKLLN
- protein stability index [1]: 0.157
- protein stability index [2]: 0.6

Sequence: PDKRRHLIKLLN
- protein stability index [1]: 0.115
- protein stability index [2]: 0.605

Sequence: PDLAASFWRVVG
- protein stability index [1]: 0.151
- protein stability index [2]: 0.708

Sequence: PDNRNHLIKLLN
- protein stability index [1]: 0.171
- protein stability index [2]: 0.604

Sequence: PDTRNHLIKLLN
- protein stability index [1]: 0.183
- protein stability index [2]: 0.59

Sequence: PGKRNHLIKLLN
- protein stability index [1]: 0.127
- protein stability index [2]: 0.585

Sequence: PHLAASFWRVVG
- protein stability index [1]: 0.148
- protein stability index [2]: 0.698

Sequence: PLIQPLPVQFLN
- protein stability index [1]: 0.0682
- protein stability index [2]: 0.604

Sequence: PSDAASFWRVVG
- protein stability index [1]: 0.187
- protein stability index [2]: 0.702

Sequence: PSLAAKFWRVVG
- protein stability index [1]: 0.149
- protein stability index [2]: 0.681

Sequence: PSLAASDWRVVG
- protein stability index [1]: 0.627
- protein stability index [2]: 0.68

Sequence: PSLAASFWCVVG
- protein stability index [1]: 0.47
- protein stability index [2]: 0.687

Sequence: PSLAASFWDVVG
- protein stability index [1]: 0.694
- protein stability index [2]: 0.708

Sequence: PSLAASFWRHVG
- protein stability index [1]: 0.181
- protein stability index [2]: 0.704

Sequence: PSLAASFWRKVG
- protein stability index [1]: 0.131
- protein stability index [2]: 0.688

Sequence: PSLAASFWRVVGI
- protein stability index [1]: 0.667
- protein stability index [2]: 0.696

Sequence: PSLAASFWRVVGS
- protein stability index [1]: 0.234
- protein stability index [2]: 0.697

Sequence: PSLAASPWRVVG
- protein stability index [1]: 0.519
- protein stability index [2]: 0.683

Sequence: PSLADSFWRVVG
- protein stability index [1]: 0.586
- protein stability index [2]: 0.688

Sequence: PSLAMSFWRVVG
- protein stability index [1]: 0.146
- protein stability index [2]: 0.673

Sequence: PSLHASFWRVVG
- protein stability index [1]: 0.157
- protein stability index [2]: 0.684

Sequence: PSLVASFWRVVG
- protein stability index [1]: 0.137
- protein stability index [2]: 0.686

Sequence: PSSAASFWRVVG
- protein stability index [1]: 0.143
- protein stability index [2]: 0.696

Sequence: QSMRWTFRYWVN
- protein stability index [1]: 0.047
- protein stability index [2]: 0.691

Sequence: RHIQPLPVQFLN
- protein stability index [1]: 0.167
- protein stability index [2]: 0.588

Sequence: RKIQPLPVQFLN
- protein stability index [1]: 0.0533
- protein stability index [2]: 0.616

Sequence: RLIIPLPVQFLN
- protein stability index [1]: 0.018
- protein stability index [2]: 0.551

Sequence: RLIQALPVQFLN
- protein stability index [1]: 0.0525
- protein stability index [2]: 0.683

Sequence: RLIQPAPVQFLN
- protein stability index [1]: 0.0579
- protein stability index [2]: 0.612

Sequence: RLIQPLDVQFLN
- protein stability index [1]: 0.225
- protein stability index [2]: 0.617

Sequence: RLIQPLEVQFLN
- protein stability index [1]: 0.163
- protein stability index [2]: 0.665

Sequence: RLIQPLPQQFLN
- protein stability index [1]: 0.0631
- protein stability index [2]: 0.642

Sequence: RLIQPLPRQFLN
- protein stability index [1]: 0.19
- protein stability index [2]: 0.596

Sequence: RLIQPLPSQFLN
- protein stability index [1]: 0.106
- protein stability index [2]: 0.613

Sequence: RLIQPLPVQCLN
- protein stability index [1]: 0.173
- protein stability index [2]: 0.478

Sequence: RLIQPLPVQFAN
- protein stability index [1]: 0.353
- protein stability index [2]: 0.62

Sequence: RLIQPLPVQFGN
- protein stability index [1]: 0.63
- protein stability index [2]: 0.611

Sequence: RLIQPLPVQFLNE
- protein stability index [1]: 0.659
- protein stability index [2]: 0.676

Sequence: RLIQPLPVQFLNQ
- protein stability index [1]: 0.65
- protein stability index [2]: 0.673

Sequence: RLIQPLPVQFLW
- protein stability index [1]: 0.621
- protein stability index [2]: 0.565

Sequence: RLIQPLPVQLLN
- protein stability index [1]: 0.0606
- protein stability index [2]: 0.577

Sequence: RLIQPLVVQFLN
- protein stability index [1]: 0.045
- protein stability index [2]: 0.587

Sequence: RLIVPLPVQFLN
- protein stability index [1]: 0.0525
- protein stability index [2]: 0.607

Sequence: RLPQPLPVQFLN
- protein stability index [1]: 0.118
- protein stability index [2]: 0.631

Sequence: RSMRWTFRYWVN
- protein stability index [1]: 0.0703
- protein stability index [2]: 0.659

Sequence: SVVYLSCVACIN
- protein stability index [1]: 0.0146
- protein stability index [2]: 0.0314

Sequence: TKHKKGQKQKIN
- protein stability index [1]: 0.118
- protein stability index [2]: 0.639

Sequence: TLIQPLPVQFLN
- protein stability index [1]: 0.102
- protein stability index [2]: 0.576

Sequence: VEGAVGGWRLVG
- protein stability index [1]: 0.159
- protein stability index [2]: 0.685

Sequence: VFGAVGGWRLVG
- protein stability index [1]: 0.134
- protein stability index [2]: 0.698

Sequence: VHGAVGGWRLVG
- protein stability index [1]: 0.136
- protein stability index [2]: 0.692

Sequence: VMGAVGGWRLVG
- protein stability index [1]: 0.118
- protein stability index [2]: 0.681

Sequence: VRGAAGGWRLVG
- protein stability index [1]: 0.164
- protein stability index [2]: 0.689

Sequence: VRGADGGWRLVG
- protein stability index [1]: 0.438
- protein stability index [2]: 0.685

Sequence: VRGAPGGWRLVG
- protein stability index [1]: 0.165
- protein stability index [2]: 0.684

Sequence: VRGAVGGCRLVG
- protein stability index [1]: 0.633
- protein stability index [2]: 0.692

Sequence: VRGAVGGERLVG
- protein stability index [1]: 0.65
- protein stability index [2]: 0.698

Sequence: VRGAVGGGRLVG
- protein stability index [1]: 0.564
- protein stability index [2]: 0.682

Sequence: VRGAVGGWFLVG
- protein stability index [1]: 0.626
- protein stability index [2]: 0.673

Sequence: VRGAVGGWNLVG
- protein stability index [1]: 0.198
- protein stability index [2]: 0.679

Sequence: VRGAVGGWRGVG
- protein stability index [1]: 0.602
- protein stability index [2]: 0.673

Sequence: VRGAVGGWRLLG
- protein stability index [1]: 0.164
- protein stability index [2]: 0.658

Sequence: VRGAVGGWRLNG
- protein stability index [1]: 0.234
- protein stability index [2]: 0.679

Sequence: VRGAVGGWRLQG
- protein stability index [1]: 0.153
- protein stability index [2]: 0.649

Sequence: VRGAVGGWRLRG
- protein stability index [1]: 0.636
- protein stability index [2]: 0.679

Sequence: VRGAVGGWRLVE
- protein stability index [1]: 0.726
- protein stability index [2]: 0.663

Sequence: VRGAVGGWRLVGH
- protein stability index [1]: 0.668
- protein stability index [2]: 0.671
